B1: Escherichia coli polynucleotide phosphorylase core (PNPase ΔKHΔS1, lacking the C-terminal S1 and KH domains) (domain or fragment, E. coli)
chain: MLNPIVRKFQYGQHTVTLETGMMARQATAAVMVSMDDTAVFVTVVGQKKAKPGQDFFPLTVNYQERTYAAGRIPGSFFRREGRPSEGETLIARLIDRPIRPLFPEGFVNEVQVIATVVSVNPQVNPDIVAMIGASAALSLSGIPFNGPIGAARVGYINDQYVLNPTQDELKESKLDLVVAGTEAAVLMVESEAQLLSEDQMLGAVVFGHEQQQVVIQNINELVKEAGKPRWDWQPEPVNEALNARVAALAEARLSDAYRITDKQERYAQVDVIKSETIATLLAEDETLDENELGEILHAIEKNVVRSRVLAGEPRIDGREKDMIRGLDVRTGVLPRTHGSALFTRGETQALVTATLGTARDAQVLDELMGERTDTFLFHYNFPPYSVGETGMVGSPKRREIGHGRLAKRGVLAVMPDMDKFPYTVRVVSEITESNGSSSMASVCGASLALMDAGVPIKAAVAGIAMGLVKEGDNYVVLSDILGDEDHLGDMDFKVAGSRDGISALQMDIKIEGITKEIMQVALNQAKGARLHILGVMEQAINAPRGDIS
notes: Expression vector from George Mackie; No tag is mentioned; also called PNPase core; PNPase ΔKΔH1; source: E. coli BL21 (DE3), auto-induction, purified (ammonium sulphate, Q-Sepharose, mono-Q)
B2: RNase E recognition micro-domain (residues 1021-1061) (peptide, UniProt P21513 1021-1061, looked up)
peptide: EAPRHSDWQRPTFAFEGKGAAGGHTATHHASAAPARPQPVE
notes: also called RNase E micro-domain; source: synthetic peptide (Clonestar Biotech Ltd), desalted on PD10

Tests used:
[1] = target: B2; assay: ITC; MicroCal VP-ITC, 25 °C; 200 uM PNPase core injected into 10 uM RNase E micro-domain in the cell; 10 mM Tris pH 7.5, 150 mM NaCl, 1 mM MgCl2; single binding-site model; details: both partners purified
[2] = target: the molecule itself; assay: crystal structure; co-crystals of 165 uM PNPase core mixed with 246 uM RNase E micro-domain (1021-1061), with or without O2'-methyl RNA, Mn2+ or tungstate; four crystal forms; hanging drop, 20 °C
[3] = target: B1; assay: ITC; MicroCal VP-ITC, 25 °C; 200 uM PNPase core injected into 10 uM RNase E micro-domain in the cell; 10 mM Tris pH 7.5, 150 mM NaCl, 1 mM MgCl2; single binding-site model; details: both partners purified

Binder | dH [1] [kcal/mol] | stoichiometry N [1] | stoichiometry N [2] | Ka [3] [M⁻¹] | Kd [3] [nM]
B1 | -21.5 ± 0.52 | 1.02 ± 0.02 | 3 | – | –
B2 | – | – | – | 956000 | ~900
